Patent US20220251595A1, “ENGINEERED ATRLP23 PATTERN RECOGNITION RECEPTORS AND METHODS OF USE” (priority 2019, published 2022)

System: corn protoplasts
Test: Calcium burst in transiently transfected corn protoplasts, R-GECO1.2 fluorescence reporter
Format: cell-based, Zea mays
Conditions: 1 μM PpNLP20; for Ca^2+ increase in response to PpNLP20 treatment (R-GECO1.2 fluorescence): transient expression in corn protoplasts; for responsiveness to PpNLP20 treatment compared to AtRLP23-3×FLAG (total transient increase of fluorescence): Example 3, FIG. 4, 40 minutes, 384-well
Description: Following ligand (also known as elicitor) binding, PRRs are activated and induce a transient increase of cytosolic Ca^2+ concentration as part of a PTI response. […] In a high-throughput method, the kinetics of PRR-dependent transient variation of cytosolic Ca^2+ concentration can be measured with a fluorimeter or luminometer and in microplate formats of 96 or 384 wells.
Fluorescence was monitored using a fluorimeter equipped with a 100 Hz xenon flash lamp with excitation at 556 nm and emission measured at 585 nm for 100 ms, every 22.6 seconds for 42 minutes.
All of the AtRLP23 constructs have an operably linked 2×35S+Ω promoter construct (SEQ ID NO: 72) and an operably linked rbcS terminator (SEQ ID NO: 73)
Fluorescence was monitored using a fluorimeter equipped with a 100 Hz xenon flash lamp with excitation at 556 nm and emission measured at 585 nm for 30 ms, every 20.2 seconds for 40 minutes. For each fluorescence measurement, the transient change in R-GECO1.2 fluorescence (ΔF) are calculated from background corrected intensity values as (F-Fo), where F represents the average fluorescence intensity of the a batch of protoplasts treated with elicitor, and Fo represents the average fluorescence intensity of the same batch of protoplasts treated with a control solution that lacks the elicitor but is otherwise identical or essentially identical in composition to the solution comprising the elicitor.

| Molecule | Ca^2+ increase in response to PpNLP20 treatment (R-GECO1.2 fluorescence) | responsiveness to PpNLP20 treatment compared to AtRLP23-3×FLAG (total transient increase of fluorescence) |
| --- | --- | --- |
| AtRLP23-eJMAtRLP1-3×FLAG: AtRLP23 with the AtRLP1 eJM domain, 3×FLAG; SEQ ID NO: 49, 50 (protein, Fusion protein) MSKALLHLHFLSLFLLCCVCHSSIFTLNFHFTGIVACRPHQIQAFTKFTNEFDTRGCNNSDTFNGVWCDNSTGAVAVLQLRKCLSGTLKSNSSLFGFHQLRYVDLQNNNLTSSSLPSGFGNLKRLEGLFLSSNGFLGQVPSSFSNLTMLAQLDLSYNKLTGSFPLVRGLRKLIVLDLSYNHFSGTLNPNSSLFELHQLRYLNLAFNNFSSSLPSKFGNLHRLENLILSSNGFSGQVPSTISNLTRLTKLYLDQNKLTSSFPLVQNLTNLYELDLSYNKFFGVIPSSLLTLPFLAHLALRENNLAGSVEVSNSSTSSRLEIMYLGSNHFEGQILEPISKLINLKHLDLSFLNTSYPIDLKLFSSLKSLRSLDLSGNSISSASLSSDSYIPLTLEMLTLRHCDINEFPNILKTLKELVYIDISNNRMKGKIPEWLWSLPLLQSVTLGNNYFTGFQGSAEILVNSSVLLLYLDSNNFEGALPDLPLSIKGFGVASNSFTSEIPLSICNRSSLAAIDLSYNNFTGPIPPCLRNLELVYLRNNNLEGSIPDALCDGASLRTLDVSHNRLTGKLPRSFVNCSSLKFLSVINNRIEDTFPFWLKALPNLQVLTLRSNRFYGPISPPHQGPLGFPELRIFEISDNKFTGSLPPNYFVNWKASSRTMNQDGGLYMVYEEKLFDEGGYGYTDALDLQYKGLHMEQAKALTSYAAIDFSGNRLEGQIPESIGLLKALIAVNISNNAFTGHIPLSMANLENLESLDMSRNQLSGTIPNGLGSISFLAYINVSHNQLTGEIPQGTQITGQSKSSFEGNAGLCGLPLKESCFGTGAPPMYHQKQEDTHAKEEENEEEGNVIDAVAIGYGSGLLLGLAIAQVIASYKPEWLVKIIGLNKRRKRSDYKDHDGDYKDHDLDAAAADYKDDDDK | Ca^2+ increase |  |
| AtRLP23-eJMVe1-3×FLAG: AtRLP23 with the SlVe1 eJM domain, 3×FLAG; SEQ ID NO: 53, 54 (protein, Fusion protein) MSKALLHLHFLSLFLLCCVCHSSIFTLNFHFTGIVACRPHQIQAFTKFTNEFDTRGCNNSDTFNGVWCDNSTGAVAVLQLRKCLSGTLKSNSSLFGFHQLRYVDLQNNNLTSSSLPSGFGNLKRLEGLFLSSNGFLGQVPSSFSNLTMLAQLDLSYNKLTGSFPLVRGLRKLIVLDLSYNHFSGTLNPNSSLFELHQLRYLNLAFNNFSSSLPSKFGNLHRLENLILSSNGFSGQVPSTISNLTRLTKLYLDQNKLTSSFPLVQNLTNLYELDLSYNKFFGVIPSSLLTLPFLAHLALRENNLAGSVEVSNSSTSSRLEIMYLGSNHFEGQILEPISKLINLKHLDLSFLNTSYPIDLKLFSSLKSLRSLDLSGNSISSASLSSDSYIPLTLEMLTLRHCDINEFPNILKTLKELVYIDISNNRMKGKIPEWLWSLPLLQSVTLGNNYFTGFQGSAEILVNSSVLLLYLDSNNFEGALPDLPLSIKGFGVASNSFTSEIPLSICNRSSLAAIDLSYNNFTGPIPPCLRNLELVYLRNNNLEGSIPDALCDGASLRTLDVSHNRLTGKLPRSFVNCSSLKFLSVINNRIEDTFPFWLKALPNLQVLTLRSNRFYGPISPPHQGPLGFPELRIFEISDNKFTGSLPPNYFVNWKASSRTMNQDGGLYMVYEEKLFDEGGYGYTDALDLQYKGLHMEQAKALTSYAAIDFSGNRLEGQIPESIGLLKALIAVNISNNAFTGHIPLSMANLENLESLDMSRNQLSGTIPNGLGSISFLAYINVSHNQLTGEIPQGTQITGQSKSSFEGNAGLCGLPLKESCFGTGAPPMYHQKQEDESLPPPTPLPDSDDEWEAVAIGYGSGLLLGLAIAQVIASYKPEWLVKIIGLNKRRKRSDYKDHDGDYKDHDLDAAAADYKDDDDK | Ca^2+ increase |  |
| AtRLP23-AtBAK1-3×FLAG: AtRLP23 apoplastic and eJM domains, AtBAK1 TM and cytoplasmic domains, 3×FLAG; SEQ ID NO: 25, 26 (protein, Fusion protein) MSKALLHLHFLSLFLLCCVCHSSIFTLNFHFTGIVACRPHQIQAFTKFTNEFDTRGCNNSDTFNGVWCDNSTGAVAVLQLRKCLSGTLKSNSSLFGFHQLRYVDLQNNNLTSSSLPSGFGNLKRLEGLFLSSNGFLGQVPSSFSNLTMLAQLDLSYNKLTGSFPLVRGLRKLIVLDLSYNHFSGTLNPNSSLFELHQLRYLNLAFNNFSSSLPSKFGNLHRLENLILSSNGFSGQVPSTISNLTRLTKLYLDQNKLTSSFPLVQNLTNLYELDLSYNKFFGVIPSSLLTLPFLAHLALRENNLAGSVEVSNSSTSSRLEIMYLGSNHFEGQILEPISKLINLKHLDLSFLNTSYPIDLKLFSSLKSLRSLDLSGNSISSASLSSDSYIPLTLEMLTLRHCDINEFPNILKTLKELVYIDISNNRMKGKIPEWLWSLPLLQSVTLGNNYFTGFQGSAEILVNSSVLLLYLDSNNFEGALPDLPLSIKGFGVASNSFTSEIPLSICNRSSLAAIDLSYNNFTGPIPPCLRNLELVYLRNNNLEGSIPDALCDGASLRTLDVSHNRLTGKLPRSFVNCSSLKFLSVINNRIEDTFPFWLKALPNLQVLTLRSNRFYGPISPPHQGPLGFPELRIFEISDNKFTGSLPPNYFVNWKASSRTMNQDGGLYMVYEEKLFDEGGYGYTDALDLQYKGLHMEQAKALTSYAAIDFSGNRLEGQIPESIGLLKALIAVNISNNAFTGHIPLSMANLENLESLDMSRNQLSGTIPNGLGSISFLAYINVSHNQLTGEIPQGTQITGQSKSSFEGNAGLCGLPLKESCFGTGAPPMYHQKQEDKEEEEEEEEEEEEVLNGRITGAIAGGVAAGAALLFAVPAIALAWWRRKKPQDHFFDVPAEEDPEVHLGQLKRFSLRELQVASDNFSNKNILGRGGFGKVYKGRLADGTLVAVKRLKEERTQGGELQFQTEVEMISMAVHRNLLRLRGFCMTPTERLLVYPYMANGSVASCLRERPESQPPLDWPKRQRIALGSARGLAYLHDHCDPKIIHRDVKAANILLDEEFEAVVGDFGLAKLMDYKDTHVTTAVRGTIGHIAPEYLSTGKSSEKTDVFGYGVMLLELITGQRAFDLARLANDDDVMLLDWVKGLLKEKKLEALVDVDLQGNYKDEEVEQLIQVALLCTQSSPMERPKMSEVVRMLEGDGLAERWEEWQKEEMFRQDFNYPTHHPAVSGWIIGDSTSQIENEYPSGPRSDYKDHDGDYKDHDLDAAAADYKDDDDK |  | reduced responsiveness |
| AtRLP23+TM-AtBAK1-3×FLAG: AtRLP23 apoplastic, eJM and TM domains, AtBAK1 cytoplasmic domain, 3×FLAG; SEQ ID NO: 37, 38 (protein, Fusion protein) MSKALLHLHFLSLFLLCCVCHSSIFTLNFHFTGIVACRPHQIQAFTKFTNEFDTRGCNNSDTFNGVWCDNSTGAVAVLQLRKCLSGTLKSNSSLFGFHQLRYVDLQNNNLTSSSLPSGFGNLKRLEGLFLSSNGFLGQVPSSFSNLTMLAQLDLSYNKLTGSFPLVRGLRKLIVLDLSYNHFSGTLNPNSSLFELHQLRYLNLAFNNFSSSLPSKFGNLHRLENLILSSNGFSGQVPSTISNLTRLTKLYLDQNKLTSSFPLVQNLTNLYELDLSYNKFFGVIPSSLLTLPFLAHLALRENNLAGSVEVSNSSTSSRLEIMYLGSNHFEGQILEPISKLINLKHLDLSFLNTSYPIDLKLFSSLKSLRSLDLSGNSISSASLSSDSYIPLTLEMLTLRHCDINEFPNILKTLKELVYIDISNNRMKGKIPEWLWSLPLLQSVTLGNNYFTGFQGSAEILVNSSVLLLYLDSNNFEGALPDLPLSIKGFGVASNSFTSEIPLSICNRSSLAAIDLSYNNFTGPIPPCLRNLELVYLRNNNLEGSIPDALCDGASLRTLDVSHNRLTGKLPRSFVNCSSLKFLSVINNRIEDTFPFWLKALPNLQVLTLRSNRFYGPISPPHQGPLGFPELRIFEISDNKFTGSLPPNYFVNWKASSRTMNQDGGLYMVYEEKLFDEGGYGYTDALDLQYKGLHMEQAKALTSYAAIDFSGNRLEGQIPESIGLLKALIAVNISNNAFTGHIPLSMANLENLESLDMSRNQLSGTIPNGLGSISFLAYINVSHNQLTGEIPQGTQITGQSKSSFEGNAGLCGLPLKESCFGTGAPPMYHQKQEDKEEEEEEEEEEEEVLNGRAVAIGYGSGLLLGLAIAQVIASYRRKKPQDHFFDVPAEEDPEVHLGQLKRFSLRELQVASDNFSNKNILGRGGFGKVYKGRLADGTLVAVKRLKEERTQGGELQFQTEVEMISMAVHRNLLRLRGFCMTPTERLLVYPYMANGSVASCLRERPESQPPLDWPKRQRIALGSARGLAYLHDHCDPKIIHRDVKAANILLDEEFEAVVGDFGLAKLMDYKDTHVTTAVRGTIGHIAPEYLSTGKSSEKTDVFGYGVMLLELITGQRAFDLARLANDDDVMLLDWVKGLLKEKKLEALVDVDLQGNYKDEEVEQLIQVALLCTQSSPMERPKMSEVVRMLEGDGLAERWEEWQKEEMFRQDFNYPTHHPAVSGWIIGDSTSQIENEYPSGPRSDYKDHDGDYKDHDLDAAAADYKDDDDK |  | reduced responsiveness |
